Reference: patent publication US20080009025A1, “PROTEIN KINASE REGULATION” (priority 1999, published 2008)
Where a SMILES comes first, the peptide text is derived from it.

Columns and labels:
PDK1 [1] = target: T1, PDK1 (Homo sapiens, UniProt O15530); experiment: PDK1 activity towards synthetic peptide substrates T308tide or PDKtide; type: biochemical
T1 construct: Full length PDK1 (residues 1-556); made in house; host or cells: 293 cells
T1 sequence (O15530 52-556): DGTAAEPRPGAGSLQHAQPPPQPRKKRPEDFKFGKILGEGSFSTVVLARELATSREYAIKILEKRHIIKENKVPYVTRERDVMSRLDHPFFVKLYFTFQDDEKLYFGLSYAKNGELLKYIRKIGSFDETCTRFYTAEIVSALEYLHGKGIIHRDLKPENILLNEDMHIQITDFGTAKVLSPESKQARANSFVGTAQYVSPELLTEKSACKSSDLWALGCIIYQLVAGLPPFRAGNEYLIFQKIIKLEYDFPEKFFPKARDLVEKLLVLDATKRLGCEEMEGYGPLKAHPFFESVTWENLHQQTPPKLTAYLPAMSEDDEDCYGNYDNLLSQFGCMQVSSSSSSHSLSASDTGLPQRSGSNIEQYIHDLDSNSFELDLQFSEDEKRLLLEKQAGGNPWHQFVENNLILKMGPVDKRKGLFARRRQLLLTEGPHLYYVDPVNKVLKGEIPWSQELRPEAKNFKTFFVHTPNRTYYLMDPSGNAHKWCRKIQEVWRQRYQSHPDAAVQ
Experimental: FIG. 12. PDK1 is activated and stabilised through its interaction with PIFtide. (A) GST-PDK1 activity was measured in the presence of increasing concentrations of wild type (wt) PIFtide (closed circles) or a mutant D978A PIFtide (open circles) using the synthetic peptide substrate termed T308tide, as described in Material and Methods. The data was fitted to a hyperbola using the Kaleidagraph™ software. The connection needed to obtain 50% activation of PDK1 was […] for wt-PIFtide and 1.1 μM for D978A-PIFtide. The assay shown was performed in triplicate and there was less than 5% difference between each assay. Similar results were obtained in 2 further experiments (B)—The wild type GST-PDK1 (circles) or the L155D mutant of GST-PDK1 (squares) was incubated in the presence (closed symbols) or absence (open symbols) of […] PIFtife and then for 2 min at the indicated temperatures, rapidly brought to 0° C. (see Materials and Methods), and 2 min later assayed at 30° C. for 10 min using T308tide as substrate. The activity of PDK1 obtained by incubation at 30° C. was taken as 100%. The assay shown was performed in duplicate with similar results obtained in two separate experiments.
FIG. 14. […] (A) His-PDK1 was assayed for activity using as substrate the indicated concentration of either PDKtide (open triangles) or T308tide (open circles). (B) HIS-PDK1 was assayed for activity in the presence if PDKtide (25 μM closed triangles) or T308tide (100 μM closed circles) in the presence of the indicated concentrations of PIFtide. The assay was performed in triplicates with less than 5% difference between the triplicate samples. Similar results were obtained in 3 separate experiments.
PDK1's ability to phosphorylate Thr308 of PKBα was measured using a mutant of GST-PKBα in which Ser473 was mutated to Asp (GST-473D PKBα) in the presence of phospholipid vesicles containing sn-1-stearoyl-2-arachidonoyl-D-PtdIns (3, 4, 5)P3 [13]. The ability of wild type and mutant PDK1 to phosphorylate the synthetic peptides T308tide or PDKtide was carried out in 20 μl assays containing 50 mM Tris/HCl pH 7.5, 0.1% 2-mercaptoethanol 10 mM MgCl2, 100 μM [γ^32P]ATP (˜500 cpm/pmol) 0.5 μM microcystin-LR.PDK1 and the peptide concentrations indicated under Results. After incubation for 10 min at 30° C. the reaction was stopped by addition of 20 μl of 150 mM phosphoric acid. 35 μl of the resultant mixture was spotted into P81 phosphocellulose paper (2×2 cm) and the papers washed and analysed as described previously for assays of MAP kinase. […] Control assays were carried out in parallel in which either PDK1, or peptide substrate were omitted; these values were always less than 5% of the activity measured in the presence of these reagents. […]

PDK1 [2] = experiment: Yeast two-hybrid interaction with PDK1; type: binding, human; details: PDK1 L155 mutants
PDK1 [3] = target: T2, PDK1 (Homo sapiens, UniProt O15530); experiment: Yeast two-hybrid interaction with PDK1; type: binding; set-up: expressed in transfected cells; host or cells: Saccharomyces cerevisiae strain Y190; details: wild type PDK1
T2 sequence (O15530 1-556): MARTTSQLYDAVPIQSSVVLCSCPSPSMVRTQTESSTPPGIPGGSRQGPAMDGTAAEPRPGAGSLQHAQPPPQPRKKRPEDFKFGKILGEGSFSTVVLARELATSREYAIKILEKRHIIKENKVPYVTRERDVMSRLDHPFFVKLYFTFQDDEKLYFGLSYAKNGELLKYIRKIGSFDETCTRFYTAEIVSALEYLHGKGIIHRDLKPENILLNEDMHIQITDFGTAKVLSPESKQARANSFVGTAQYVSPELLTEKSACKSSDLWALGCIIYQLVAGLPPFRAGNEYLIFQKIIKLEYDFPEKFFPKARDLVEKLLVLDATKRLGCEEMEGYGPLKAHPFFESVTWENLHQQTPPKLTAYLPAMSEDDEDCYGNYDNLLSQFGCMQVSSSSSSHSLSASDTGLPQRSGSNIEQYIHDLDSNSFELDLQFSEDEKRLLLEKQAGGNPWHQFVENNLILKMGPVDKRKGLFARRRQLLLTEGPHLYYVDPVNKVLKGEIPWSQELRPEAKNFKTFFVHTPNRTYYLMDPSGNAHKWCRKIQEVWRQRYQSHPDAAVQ

PDK1 [4] = target: T2, PDK1; experiment: Glutathione-Sepharose pull-down of PDK1 with S6K1 or SGK1 from 293 cells; type: binding; set-up: Full length PDK1 (residues 1-556); made in house; host or cells: 293 cells; details: Flag-tagged S6K1 forms; wild type GST-PDK1
Experimental: FIG. 21. Interaction of S6K1 and SGK1 with PDK1. 293 cells were transiently transfected with DNA constructs expressing GST, GST-PDK1 wt or PDK1 L155E together with constructs expressing either wild type or the indicated mutants or truncations of HA tagged S6K1 (A) or wild type GST-ΔN-SGK1 or 422D mutant. 36 h post transfection the cells were lysed and GST fusion protein was purified by affinity chromatography on glutathione-Sepharose beads. Aliquots were electrophoresed on a 10% SDS-polyacrylamide gel, stained with Coomassie Blue, or immunoblotted using an anti-FLAG antibody to detect FLAG-S6K1 and anti-Myc antibody to detect Myc-PDK1. To establish that the wild type and mutant proteins were expressed at similar levels, […] of total lysate was electrophoresed on a 10% SDS-polyacrylamide gel and immunoblotted using the indicated antibodies. Duplicates of each condition are shown. Similar results were obtained in two different experiments.
Binding of PDK1 to SGK1 and S6K1. For the data presented in FIG. 22, 293 cells were cotransfected with 10 μg of the wild type or mutant PDK1 plasmid and 10 μg of either the wild type or mutant S6K1 or SGK1. […] The gels were either stained with Coomassie blue, or analysed by immunoblotting with either anti-Flag or anti-Myc antibodies (described below).

Compound CC(C)C[C@H](NC(=O)[C@H](Cc1ccc(O)cc1)NC(=O)[C@H](CCC(=O)O)NC(=O)[C@@H]1CCCN1C(=O)[C@@H](NC(=O)CNC(=O)[C@H](CS)NC(=O)[C@H](Cc1ccccc1)NC(=O)[C@@H](NC(=O)[C@@H](N)CCCCN)[C@@H](C)O)[C@@H](C)O)C(=O)N[C@@H](C)C(=O)N1CCC[C@H]1C(=O)N[C@@H](CCC(=O)O)C(=O)N[C@H](C(=O)N[C@@H](CCCNC(=N)N)C(=O)N[C@@H](CCCNC(=N)N)C(=O)O)C(C)C [T308tide, KTFCGTPEYLAPEVRR, reference compound] (H-KTFCGTPEYLAPEVRR-OH) has a Km (PDK1 [1]; read-out: Km of PDK1 for peptide substrate) greater than 10 mM.
For “KTFCGTPEYLAPEVRREPRILSEEEQEMFRDFDYLADWC [PDKtide, 39 amino acid polypeptide composed of T308tide fused to PIFtide]”, the “rate of phosphorylation by PDK1 relative to T308tide” value (PDK1 [1]; assayed at 100 μM) was “over 100 fold”.
In the case of “PKACT: C-terminal fragment of PKA composed of residues 129-350”, the “two-hybrid interaction with L155S, L155D or L155E mutants of PDK1” value (PDK1 [2]) is reported as “greatly reduced” and the “two-hybrid interaction with full length PDK1” value (PDK1 [3]) is reported as “positive interaction”.
“full length S6K1: Flag epitope tagged full length S6K1” was tested, and the “interaction with GST-PDK1” value (PDK1 [4]) was “failed to interact”.
“full length S6K1[T412E]: Flag epitope tagged full length S6K1 with Thr412 to Glu” was tested, and the “interaction with GST-PDK1” value (PDK1 [4]) was “failed to interact”.
